In the supplement of paper PMC12042874:
± gives the uncertainty stated by the source.

Experiment: amyloid nucleation score (Sup35N fusion, yeast selection) (log enrichment); library NNK3; higher = more nucleation; inactive = no reads after selection
Procedure, shortened: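 Peptides of 20 random codons, each fused to Sup35N, were expressed in psi-negative yeast. Cells were induced with 100 μM copper sulfate for 24 hours and grown 7 days at 30°C on medium lacking adenine and uracil, and plasmid inserts before and after selection were Illumina-sequenced. Nucleation scores are DiMSum log enrichments of output over input reads, centred on the mode score of non-aggregating sequences, and sequences under 100 input reads were excluded.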

FRMTPHIGALSNRLHVTTWL
amyloid nucleation score: -0.226 ± 0.7

FRNRCVNDD
amyloid nucleation score: inactive

FRNVGMLGSNLGFGINNDIN
amyloid nucleation score: inactive

FRRFSGTGFIMSEIAYFFSI
amyloid nucleation score: inactive

FRSEVGVNFNRTLWRYNRVY
amyloid nucleation score: inactive

FRSFIGKNHEKRSVILCILE
amyloid nucleation score: inactive

FRSWPS
amyloid nucleation score: inactive

FRTTLKTR
amyloid nucleation score: inactive

FRVNKYNISFLVRQSGIWLA
amyloid nucleation score: inactive

FRVYQNIDTERDSRTSPKES
amyloid nucleation score: inactive

FRYPYNPVIREFCTCSSWFL
amyloid nucleation score: 1.73 ± 0.069

FRYRNSSTEVCWKRSWLTLG
amyloid nucleation score: inactive

FRYVIVYKRSSFGYRKCIEC
amyloid nucleation score: inactive

FSCIPCG
amyloid nucleation score: inactive

FSCPRVSIFGLCSNCMYQWW
amyloid nucleation score: 2.43 ± 0.057

FSDNSSRSGSNSEWYGS
amyloid nucleation score: inactive

FSDVGLWFGAYRKVVVVKLF
amyloid nucleation score: inactive

FSFRTMYVFDPLYNKYRIFM
amyloid nucleation score: 0.125 ± 0.6

FSHFMSSTYYCC
amyloid nucleation score: 1.73 ± 0.12

FSHVV
amyloid nucleation score: inactive

FSIDTNGSCYRIDARHVK
amyloid nucleation score: inactive

FSIVMTRFSFGSRVGSFYNF
amyloid nucleation score: 0.151 ± 0.44

FSMCCTWYFKFHL
amyloid nucleation score: 0.596 ± 0.14

FSNQSNFNMELLLKDRDSTP
amyloid nucleation score: inactive

FSPMYFNWMIGVVCSGIVGN
amyloid nucleation score: -0.349 ± 0.8

FSPYYLPLYVLVVRIKIQLG
amyloid nucleation score: inactive

FSSFG
amyloid nucleation score: inactive

FSSRVRTMPLVGVM
amyloid nucleation score: inactive

FSTWEELLTSHLKCFTAGWG
amyloid nucleation score: -0.458 ± 1.4

FSVFN
amyloid nucleation score: inactive

FSVVLYKRWWRTRMATGLLK
amyloid nucleation score: inactive

FSYSFVTRDMATYGRTLVKS
amyloid nucleation score: inactive

FTFLMDRY
amyloid nucleation score: -0.083 ± 0.34

FTGFN
amyloid nucleation score: inactive

FTLKRLPGYSHRSLEWLPPY
amyloid nucleation score: inactive

FTNLYMPTRERHCRGSHMW
amyloid nucleation score: inactive

FTNYRSRGNMVRGGPCRPSY
amyloid nucleation score: inactive

FTQYFLTRCDYYVEYYMLDR
amyloid nucleation score: inactive

FTSFSYYMVCFCADIIKQG
amyloid nucleation score: 1.97 ± 0.065

FTSYS
amyloid nucleation score: inactive

FTVCFVLPIAITPMMWDIWY
amyloid nucleation score: inactive

FTVTCPGREANIYIFFRGGR
amyloid nucleation score: 1.37 ± 0.13

FTYWLFSLDR
amyloid nucleation score: inactive

FVCYNTFSSSACSLCNHLSH
amyloid nucleation score: 2.4 ± 0.053

FVDLSGRSCRVPTEVWGFHS
amyloid nucleation score: inactive

FVEAANNSFCYESSNIT
amyloid nucleation score: inactive

FVFGN
amyloid nucleation score: inactive

FVFMTDGGVLNVLAWCISEA
amyloid nucleation score: inactive

FVGIIGWMIYVEGVY
amyloid nucleation score: inactive

FVGSLDFNGVSEGFVASHCI
amyloid nucleation score: inactive

FVHSLRVVIW
amyloid nucleation score: inactive

FVIELCMWVRLEDVKLCFID
amyloid nucleation score: inactive

FVILFVVFNYINALCDCNID
amyloid nucleation score: 0.377 ± 0.27

FVIVGSGSQSPEYIWNVKYE
amyloid nucleation score: -0.049 ± 0.32

FVIVSL
amyloid nucleation score: 1.6 ± 0.069

FVKCSRMF
amyloid nucleation score: inactive

FVLGGFLNKN
amyloid nucleation score: -0.11 ± 1.4

FVLIPSHRAW
amyloid nucleation score: inactive

FVMRYRVVYSDRCFELGWHA
amyloid nucleation score: -0.567 ± 0.76

FVNISHMY
amyloid nucleation score: inactive

FVPCVWLGSGNCLCTDTMLW
amyloid nucleation score: 1.63 ± 0.11

FVPRPISNSAGIP
amyloid nucleation score: inactive

FVSILLYYMPVNCLNRKTIN
amyloid nucleation score: inactive

FVTAAN
amyloid nucleation score: inactive

FVTQFVEN
amyloid nucleation score: inactive

FVYTHIWGVGLGKML
amyloid nucleation score: 0.632 ± 0.14

FWFSTELVDDGAGQT
amyloid nucleation score: inactive

FWHILLEVRLAVWSQMRDMG
amyloid nucleation score: inactive

FWIVSVTYFNCLVDWGEGCM
amyloid nucleation score: 2.05 ± 0.091

FWKFRGQTWYCFAGTDGISH
amyloid nucleation score: -0.002 ± 0.75

FWNVLWATRLYFFSFYDITS
amyloid nucleation score: inactive

FWSHLTLTSSSFKFGTVSR
amyloid nucleation score: inactive

FWTVHLVT
amyloid nucleation score: inactive

FWVNVCVFMGRVW
amyloid nucleation score: inactive

FWWLEI
amyloid nucleation score: inactive

FYCGFAMGFILCCQNYTFVT
amyloid nucleation score: 2.63 ± 0.076

FYCGIWAYVEDCC
amyloid nucleation score: 2.53 ± 0.057

FYCIVFQYGSLDLARH
amyloid nucleation score: 2.69 ± 0.064

FYCRSGVGKCYGWVTKVMRE
amyloid nucleation score: inactive

FYFGTG
amyloid nucleation score: inactive

FYGFGGISIRSGVVGIVDMK
amyloid nucleation score: inactive

FYISREALLSIASRTLRARQ
amyloid nucleation score: inactive

FYMDWTGHLQKFNP
amyloid nucleation score: inactive

FYNDWRVFRVGCSLGRDQSN
amyloid nucleation score: inactive

FYNFSTCVTRGWYVFMRC
amyloid nucleation score: inactive

FYPRMYTISQMLDAGQDDAA
amyloid nucleation score: inactive

FYQNLFRILMHNVHAVCPCY
amyloid nucleation score: inactive

FYWGACSIHLFKL
amyloid nucleation score: inactive

FYYSVHFLF
amyloid nucleation score: inactive

FYYTKDPRIGKNNYLCV
amyloid nucleation score: inactive

FYYYLCYDIVAISVLMNLPY
amyloid nucleation score: inactive

GADMKTRRSARGLMWTMGSS
amyloid nucleation score: inactive

GAHANM
amyloid nucleation score: inactive

GAKIPELSLLMVTPINARSF
amyloid nucleation score: inactive

GALMCPPRLVS
amyloid nucleation score: inactive

GASCLCWNYRDRLRTEVRYY
amyloid nucleation score: inactive

GATFVRILSRLIRLSFI
amyloid nucleation score: inactive

GCINKDDYKSDCWSFYKTE
amyloid nucleation score: inactive

GCIYK
amyloid nucleation score: inactive

GCLECL
amyloid nucleation score: inactive

GCLYVW
amyloid nucleation score: inactive

GCNDSSARLS
amyloid nucleation score: inactive

GCNNVH
amyloid nucleation score: inactive

GCSRHYKFS
amyloid nucleation score: inactive

GDERGLLMYVPG
amyloid nucleation score: inactive

GDITSEYV
amyloid nucleation score: inactive

GDMQMW
amyloid nucleation score: inactive

GDNSLTYMSAM
amyloid nucleation score: inactive

GEKCGRSRI
amyloid nucleation score: inactive

GFAISQAYALSTPFVCISAI
amyloid nucleation score: inactive

GFEDSSIT
amyloid nucleation score: inactive

GFFLLNSYSNCMFCKLHTGT
amyloid nucleation score: 1.97 ± 0.082

GFGFP
amyloid nucleation score: inactive

GFGYCVWQESGNLRGCRWLW
amyloid nucleation score: 0.5 ± 0.39

GFIMEYDEY
amyloid nucleation score: inactive

GFLMGSE
amyloid nucleation score: inactive

GFMLWTHKKLARPEATAV
amyloid nucleation score: inactive

GFVMMFNR
amyloid nucleation score: inactive

GFYWYTVFAVSLDDCLSKSS
amyloid nucleation score: inactive

GGCCAYCSLDLVWMFDDRSV
amyloid nucleation score: 2.16 ± 0.081

GGFCKWRKCGVYKMTGHCPE
amyloid nucleation score: inactive

GGKLSRNI
amyloid nucleation score: inactive

GGKVSERRYVDLCRLPSVAP
amyloid nucleation score: inactive

GGLCLLAVLWKFLMSALVIR
amyloid nucleation score: inactive

GGLDFSSLSLMWYTQSSHKV
amyloid nucleation score: inactive

GGLEVMSLITT
amyloid nucleation score: inactive

GGLTSYDQ
amyloid nucleation score: inactive

GGNGKAWHVGTVIMCRKLRV
amyloid nucleation score: 2.5 ± 0.078

GGPSYSLSLWLSKVSCLQGG
amyloid nucleation score: 0.63 ± 0.34

GGRTM
amyloid nucleation score: inactive

GGSCLSNPVGKYGILWWMLS
amyloid nucleation score: inactive

GGTIFNGNWVSTLSHPQRRA
amyloid nucleation score: 0.47 ± 0.25

GGVTYRQDLTRYLSG
amyloid nucleation score: inactive

GHGLGAAYCRIVLKRETLTN
amyloid nucleation score: inactive

GHIYCYSVKE
amyloid nucleation score: inactive

GHSEYLA
amyloid nucleation score: inactive

GHTANLTYALFMGDFSRAGI
amyloid nucleation score: inactive

GHVSHYVVVLHLTSIGSCGL
amyloid nucleation score: 0.696 ± 0.23

GHWSEKSDGTNKSYVVRSGM
amyloid nucleation score: inactive

GIAGCKSRSCLLPYCNWVSV
amyloid nucleation score: inactive

GIANRAFITDGGWGLFISTY
amyloid nucleation score: inactive

GICHTFDAGTVFFLFGSWFI
amyloid nucleation score: inactive

GIGIFSCLKSSVLCLIYLSR
amyloid nucleation score: -0.113 ± 0.31

GIHHFF
amyloid nucleation score: inactive

GIIHDVMDTTNGKIVSS
amyloid nucleation score: inactive

GIKVLTTCGHKKFVGINSVM
amyloid nucleation score: inactive

GILFNK
amyloid nucleation score: inactive

GIRCSLVY
amyloid nucleation score: inactive

GIRLIECS
amyloid nucleation score: inactive

GKFVRLPPISRISHLWNCEL
amyloid nucleation score: inactive

GKPWCNYSDYFYCTLLVDCK
amyloid nucleation score: -0.246 ± 0.82

GKQIRSNR
amyloid nucleation score: inactive

GKVVVN
amyloid nucleation score: inactive

GLCWRMLTFLWSFVSMENNG
amyloid nucleation score: -0.565 ± 1.1

GLFCPVYS
amyloid nucleation score: inactive

GLFMRFTRWCRGKHVTMVP
amyloid nucleation score: inactive

GLFRGYGVTLVRRLWSRIMY
amyloid nucleation score: inactive

GLGYFPIWASLRTKLVLILG
amyloid nucleation score: inactive

GLHLIFFSYHRWHVTLK
amyloid nucleation score: inactive

GLLANWYVQH
amyloid nucleation score: inactive

GLLSPRTGCD
amyloid nucleation score: inactive

GLMRDCTTAMIGENDAFWSD
amyloid nucleation score: inactive

GLPSFRHSF
amyloid nucleation score: inactive

GLRFPMRWDCGVRVNYRKSR
amyloid nucleation score: inactive

GLRLFYAHRYAC
amyloid nucleation score: inactive
